Results reported in the DeepSol protein solubility set.

experiment: soluble on expression in E. coli; label from the status in PepcDB or PDB records

Sequence | soluble on expression in E. coli
MAHHHHHHMERVRYRSSVTRKLIDLYDEVAELYDCRENMRNQVTQAMRIDPRYCKERHGEVRLACKPTLQQQSAVESVENALEGLHDAVHELVAAYLTQEEKRHLGIDTHLFQTSTEKANTYQYAPPPPKPRSSSSNAARRARQKTSAAATFPHPSTRHREVRVEKEEGDAHENTAATAPTPAAPTLTVPVDTPAPQQQPLTNTTTNKKISNSVWDSSAPAASAAFSSAAISLPASSVKLAQQSVVELSQLAAPQQPVTSSSQPLCSSIVHVAAPEKHEDGSGTAAEQKPVAASHTQDTEIAEGTPERVVASAVSASTLSVTWPTDTGAGSTLHLPTGSQPPLATERLLKVPVSSPDALTPIAKTPPAIPPRPTSVQAQAQEPALTSANPTPPPSHPPSQDAVAASCNDASAAKASASQARTAVVGFKRFLIDSDSNSSC | soluble
MAHHHHHHMESPQVAELNEDIVELNKLLAQAVRENVKEKIKKCIENTTVEIAKLKLEESQTPNKITEKNTPLNDSNISYNSVQSFAWNQEGNKVTVFLTVKDIHTIDKEKISAEFNERNFEVKMHQVNKKNYRFCVKKLHEKIVPGKCSFKVKKDALHVYLIKQDQKYWDNLHFKESPMSKIRAPKMDEQAEPSTMLMNMMKQLYQEGDSDMKRTIAKAWCEANEKKSDFSVPNF | soluble
MAHHHHHHMEVEWDSETVTKFYNYLCGTISYQNCVELEKDLRIETGTEEKLNKHSCSSCSDHHGDVNISCFKFKKDDDDVLGEILDSEKDQENVKASLAEITQKAFTIYSNVIAKAASKGDNKVTLETDHFLRSDILRLVFSKYITTKAKERITEISSKSTKNIVTLANPLNMNEHDLNKIETDTIANLMHDYVGLQKNFLGRDYTKLIFDELVFIEYNNQFNSFGREYKNVRTDFYCWTYITSLDRQKQRGLYKLLKELSLLPYELNKKANLSLQIGTLFQFLYFSPNKSYLKKHCQGGYGKMDNGKKVTCIYVPFVHSNDDVEIKLYRSEYNGVNEESEESEGRGKTEPNVRDATTVPSNQTDDGAPFRVIKPESDSLIFLQTRNVSYEISKTKNKFFTVNFSISGPVSTERRL | not soluble
MAHHHHHHMEYQGSPQQEEGDAALAKRLHEELNRSEASGHQEPSDQTGGRRQVECPMCSSVSVVVGAADGVQQVCERCKATTHGGFASGEDNENYSMQKLLLCNICQSYNRVPKGTFDAILCGACGNQLKAGGSVTENLSPEDTRVRTQEIRVRCPKCSSINTVEANTDALSVRFECGSCRYANEVFF | soluble
MAHHHHHHMFNNDPLQKYDKELFDLLEKEKNRQIETINLIASENLTNTAVRECLGDRISNKYSEGYPHKRYYGGNDYVDKIEELCYKRALEAFNVSEEEWGVNVQPLSGSAANVQALYALVGVKGKIMGMHLCSGGHLTHGFFDEKKKVSITSDLFESKLYKCNSEGYVDMESVRNLALSFQPKVIICGYTSYPRDIDYKGFREICDEVNAYLFADISHISSFVACNLLNNPFTYADVVTTTTHKILRGPRSALIFFNKKRNPGIDQKINSSVFPSFQGGPHNNKIAAVACQLKEVNTPFFKEYTKQVLLNSKALAECLLKRNLDLVTNGTDNHLIVVDLRKYNITGSKLQETCNAINIALNKNTIPSDVDCVSPSGIRIGTPALTTRGCKEKDMEFIADMLLKAILLTDELQQKYGKKLVDFKKGLVNNPKIDELKKEVVQWAKNLPFA | soluble
MAHHHHHHMFTLLCCADLAGNKVNLEIALDTFPATLRGLESDIARIFNREVEKSGAVEHNANVAEPFQVMSVFVYDDVLLRWTKLESLTQLHEYDQLYVFQPQTQWHVDVQKELPPPRPPARSRASSITGASGTLASLQVNGCASSPWPRSGISTRISAAGDIDTSHSPVPSRSPARAQLEEHRREEERLAHRLSTLRRVREHLEREAQREEEEERRRRSLETYRLLKCKEEEIWSQRDALARAEEEFRQFLAEKQRLMGQSPSP | not soluble
MAHHHHHHMGCKNSKAREPPADTVTAAQANIATNKNSSTAPTLSPAQHHAKQTGETKRNNAASPASRGNNGEASENESRSEQPKKALGPGGNDVKQAASNSPSKQELDDEGNPLLLPNGDWVRTEGTPFYYSVEENLYFHPPSCQFYDPTNGMWYDPEKDEWYYDDENGAQE | soluble
MAHHHHHHMGCKSSAEAKPSETRSPSARLSRNSVTTPPDRMDTAHRLHPAAREEVDLDPENVAGAEHISPSVVTARSSSRVAAVTLHGICGYTHNGVPAYSNGTSNTWPWMKNFCEGIFMGYQWQCVEFARRWLWVTHRLLLPKRSCAYCFSSCTYAYRLKKDSSLISQRARAAMHKAAAETGAGSPSSSKEVNAATEARHLGPCTSRDTWEKVPAKFVKQGSLVPPVADSLIVYPISWGSPWGHIGVITAVDLDRHRVYVADQNRYFHDWNG | soluble
MAHHHHHHMGGRTAFEDVCANEAKAWSICLETNLGGKDVRKKCGEQQQTFDTCVSAWRTKVGNAVQVKGENEGDPPFQCASMACHIGECLRKYNYDFDRCEPHTQFFKYCVKSFYGQDYIS | not soluble
MAHHHHHHMGKGAVHPNGSNFCRFLKYNIVDKMRTLVNTNLYDTPRWLEWSERAPPMEIYNISLKTKYNNNKYMDLVKFLLKKYPHLRFQDCYVEGNNNIKGYDYFRNDHIITQMATHQLYYMNRGYSKKEALEKTEKLFYDRRMDIEKQQKINMCLAIDEKVKPIYTNGYQYLYEKMADNEKAHLSIILKKLRNMKEKLQKKKKGANENEDKKNGVLT | not soluble
MAHHHHHHMGSCCAKSDTSVDIDDSGRGVERDTEDDNNVYILQYQSRGEVLKMLELEPTPHEASVMTQSPSLPTDGPAAEECAEAELSDPLSCSSTTIVTVRSERRAADRFSANSLTWTLPEVSATTVSTRFDHARTTSFMGSDDDFSSVEWSANSRKDRRLMLLRDRDRAAQRDMVMNEMDQRRFIAEHANRAHRAILVTYIRNRLEIERRVSYEEFLVERNAFLLHELEAREPLVRRTVELQAHSELLNKMQQQRLLRNRGK | soluble
MAHHHHHHMGSLSSSSSSSAATGAGAAASQTDAQEVTPVDSLWSPHDVCEAAVDYVLRHVNTVQYMIQSIEEITGKPFLRDRIKCLPAVPRDEASRNPTMGLTPDRVFAGYMWRSARSDCQAKDVVLLEDHIARLFNTKHATAFLKKDKGVNERAASPPTTSDAAATAASSLSTTATQSQLQRLLAGSQLPVLEQVERNIRHELVHAFDDARGAIESSDCVHQACSEIRAARLSGDCFVGQEMRKGRFNFFEGGQKCVRRRAVMAVDRNPVCRGFSERAVDTVFQKCYSDYEPFAAPIYALGSYGDSQFANGTLKL | not soluble
MAHHHHHHMGTLEAQTQGPGSMALNSAVILAGCGHMDGSEIREAVLVMLELDRHNVNFKCFAPNKNQKQVVDHKKKESVGEVRNILVESARIARGSVYDIEQIRVEEFDMLVIPGGYGVAKNFSNLFDEDKENDYILPEFKNAVREFYNAKKPIGAVCISPAVVVALLKDIAKVKVTIGEDSNGLIDKMGGVHVDCPTIKSVKDDVNRIFSCSAYMRNDSLYNVYLGIQDMISSMVNYLKSK | soluble
MAHHHHHHMGTLEAQTQGPGSMKQAYDNNNIFAKLIRNEIPSVRVYEDDDVIAFMDIMPQAPGHTLVIPKKGSRNLLDADTETLFPVIKAVQKIAKAVKKAFQADGITVMQFNEAASQQTVYHLHFHIIPRMEGIELTPHNNIITPTEILEENAKKIRAAL | soluble
MAHHHHHHMGTLEAQTQGPGSMREVLVPYAGVSPSVDSTAFIAGNARIIGDVCIGKNASIWYGTVLRGDVDKIEVGEGTNIQDNTVVHTDSMHGDTVIGKFVTIGHSCILHACTLGNNAFVGMGSIVMDRAVMEEGSMLAAGSLLTRGKIVKSGELWAGRPAKFLRMMTEEEILYLQKSAENYIALSRGYL | soluble
MAHHHHHHMGTLEAQTQGPGSMSAPLAEVDPDIAELLAKELGRQRDTLEMIASENFVPRAVLQAQGSVLTNKYAEGLPGRRYYGGCEHVDVVENLARDRAKALFGAEFANVQPHSGAQANAAVLHALMSPGERLLGLDLANGGHLTHGMRLNFSGKLYENGFYGVDPATHLIDMDAVRATALEFRPKVIIAGWSAYPRVLDFAAFRSIADEVGAKLLVDMAHFAGLVAAGLHPSPVPHADVVSTTVHKTLGGGRSGLIVGKQQYAKAINSAVFPGQQGGPLMHVIAGKAVALKIAATPEFADRQRRTLSGARIIADRLMAPDVAKAGVSVVSGGTDVHLVLVDLRDSPLDGQAAEDLLHEVGITVNRNAVPNDPRPPMVTSGLRIGTPALATRGFGDTEFTEVADIIATALATGSSVDVSALKDRATRLARAFPLYDGLEEWSLVGR | soluble
MAHHHHHHMGTLEAQTQGPGSMSFFLTTPAAIDLGVNIDHVATLRNARGTAYPDPVRAALAAEDAGADAITLHLREDRRHIVDADVRTLRPRVKTRMNLECAVTPEMLDIACEIRPHDACLVPEKRSELTTEGGLDVVGHFDAVRAACKQLADAGVRVSLFIDPDEAQIRAAHETGAPVIELHTGRYADAHDAAEQQREFERIATGVDAGIALGLKVNAGHGLHYTNVQAIAALPGIAELNIGHAIVAHAVFVGWDNAVREMKAIMVAARVAALHGGR | soluble
MAHHHHHHMGVGLSTVRHAGTAILVPTVSAASTAVLPLSSEERVAALPGTTTPPAAAAAPAPPTAEHTSNPRQRLTDTPAAHAAVSLPHAAPKPHRRFLPYPEEASALATPPPAAVLTAAPVVVEAAVKRHRKGSRVTKPLHPAQASLFTWAEGGQRNATGDAIIAGDHLRRRCCPDAGVVANRSMDCDEDATLVVRSPDEGRRSGTSLQSEGGLYGEKGQRQFAASGQWSPSPASPEAEEVAATVCASVNATAVENAPSGPAAPLLSSAFTAYRPVARSASPGPALGQYEGLPLTSVQQVLESKHKVYRICLTGGPCAGKSTMLSAIQAKIPQRTGFRVMCVPEAATLLVTGGMQWDGDLTVPQQLGLLRTQLALEDQFYALAVASHVPTVIVSDRGTMDGRAFCTDAQFQEILRGVGSTIDVLRDRYDAVIHMVTAADGAEEFYNLDNPARYEDLDGARASDLRLQRMYVGHPMFRLLDNSTTFEDKIERGLQVVSQVVHKEQCAPALPTYYLVRRCPAELPVASATYTTYTTVLGNSQISDIRLLVKREMADGSTMHFFKSVRDAPSTVPSSRAPPRATSHASSGASFRSSVNAPTVSTASPTQQRTRAPNASAAASTRACASTATAPALRW | not soluble
MAHHHHHHMIPKESMNVDQSRYETQEGTIVENKLTPFLELTSGEIPMWVKQKYLLSPIDTSKYSDDFYKLGPDDFGKLSGEQVKPDLIKSKLPSSVLHKIWNLADITKDGYLDLFEYSLARHFIEMKTEGFDLPTKVPKDIINSHEY | soluble
MAHHHHHHMKDVDTARVLSELVNALQRVTAQPAWNTVQEPKAITFRLEDLFSTPNSVLASAATEGDSPEHGGNASEMNSPDMAAASFVNSGVGDGLGETATPLAPLREMSDHFSSNKKYAEEGLQDVFTMLQRLIDGTYSTAGCAALACMGQEIDKMITLMRPVALIDMRAAVYMNSLCSNIAAAKESRMQLNAPLVWDFVTNTVQTYITDHPVLYTALVAISNLSYLKDLKLTREDCGVLSRLIYPVYTEVHIVEVWAAMICNLTAHHPETVQVFLELGVVEVLERLVLYFGEEGRTVIRCLQCLSNLSMGFITGHSPALAE | not soluble
MAHHHHHHMKENVLINENIKAHEEKGNLNDDKRDEHMISLRGLNIYYKDKLENLNTIKNIDNNKKFIKLVLEDVDLKPEEIMKHILHLLKEKTSLHTILEINKQKYKIKYKEIIPDDHILFTQNIQNITNCKYALLGILKVSKYTKKNTFNEKLLQSWQDVPMEF | not soluble
